Our source for the Kd values is publication PMC6465249 (Cell Discovery, 2019).

For this assay, the target named is Recombinant hemagglutinin of H3N2 A/Texas/50/2012, ectodomain, monomeric (Influenza A virus A/Texas/50/2012 (H3N2), UniProt R4L1D1, strain). The assay can be described thus: SPR. As to conditions: both partners purified.

B1: AF4H1K1 Fab (Fab, V domains shown)
VH: QVQLVESGGGVVQPGTSLRLSCEASGFTSSAYAMHWVRQAPGKGLEWVAVITFDGGYQYYADSVKGRFTISRDISRNTLHLHMNSLRAEDTAVYYCARDPLTKLLPFDWVSGGYFDYWGQGTLVTVSS
VL: not shown
notes: also called H1 paired with K1
For the molecule B1, the dissociation constant (Kd) amounted to 49 nM.
